The target in this assay is SARS-CoV-2 RBD (residues 319-591) (SARS-CoV-2, Wuhan-Hu-1 (MN908947), UniProt P0DTC2). Kind of assay: SPR. Background: SPR reads the build-up and loss of mass on a sensor chip optically.

B1: C121 IgG (antibody, V domains shown)
VH: not shown
VL: QSALTQPASVSGSPGQSITISCTGTSSDVGSYNLVSWYQQHPGKAPKLMIYEGSKRPSGVSNRFSGSKSGNTASLTISGLQAEDEADYYCCSYAGSSTLVFGGGTKLTVL
As to B1, the binding result is “binds”.

For the origin of these results see paper PMC12910678 (Nature, 2021).
